# Assay: yeast display, Sf9 membrane polyspecificity reagent, FACS + sequencing; frameworks hold sequencing errors
# Procedure, shortened: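 A synthetic nanobody library was expressed on Saccharomyces cerevisiae BJ5465 by galactose induction for 36–48 hours. The library was stained for 1 hour at 4 °C with 10% biotinylated, detergent-solubilized Sf9 membrane reagent and enriched with streptavidin microbeads before FACS. Low and high (top ~1%) gates were set on anti-HA fluorescence for expression and streptavidin fluorescence for reagent binding, and each polyreactivity label reflects the gate of origin.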
row,Sequence,polyreactivity (PSR sort gate)
1,QVQLVESGGGLVQAGGSLRLICAASGRTFWNYAMGWYRQAPGKERELVAVISFSDGSTYYADSVKGRFTISRDNAKNTVYLQMNSLKPEDTAVYYGAAKGPRRWGSGFDYWGQGTQVTVSS,low polyreactivity
2,QVQLVESGGGLVQAGGSLRLICAASGRTFYSYAMGWYRQAPGKERELVAAISSGGTTYYADSVKGRFTISRDNAKNTDYLQMNSLKPEDTAVYYCATSRAWRYRSYYWGQGTQVTVSS,high polyreactivity
3,QVQLVESGGGLVQAGGSLRLICAASGRTFYYYAMGWDRQAPGKERELVASISYSAGRTYADSVKGRFTISRDNAKNTVYLLMNSLKPEDTAVYYCAAALYVNPYNYGTARWYYYWGQGTQVTVSS,high polyreactivity
4,QVQLVESGGGLVQAGGSLRLICAASGRTLSGYAMGWYRQAPGKERELVAAISSDGRTYYADSVKGRFTISRDNAKNTVYLQMNSLKPEDTAVYYCAKVRRGSYGYWGQGTQVTVSS,high polyreactivity
5,QVQLVESGGGLVQAGGSLRLICAASGRTSVVNAMGWYRQAPGKERELVAAITSGGSTHYADSVKGRFTISRDNAKNTVYLQITSLKPEDTAGYYFNARDRRRTNLLDYWGQATQVTVSS,low polyreactivity
6,QVQLVESGGGLVQAGGSLRLICAASGSIFAGNAMGWYRQAPGKERELVADITSGDSTYYADSVKGRFTISRDNAKNTVYLQMNSLKPEDTAVYYCAADSWDSQVVSYEYWGQGTQVTVSS,low polyreactivity
7,QVQLVESGGGLVQAGGSLRLICAASGSIFAVNAMGWYRQAPGKERELVAAISRRGGSTYYADSVKGRFTISRDNAKITDYLQMNSLKPEDTAVYYCAKRWKATRARYDYWGQGTQVTVAS,high polyreactivity
8,QVQLVESGGGLVQAGGSLRLICAASGSIFDVNAMGWYRQAPWKERELVAAISDSGGSTYYADSVKGRFTISRDNAKITVYLQMNSLKPEDTAVYYCNAVWSWYNYDDFDYWGQGTQVTVSS,low polyreactivity
9,QVQLVESGGGLVQAGGSLRLICAASGSIFDWYDMGWYRQAPGKERELVAAITTGGITNYADSVKGRFTFSRDNAKNSVYLQMNSLKPEDTAVYYCNADFSVEFDYWGQGTQVNVSS,low polyreactivity
10,QVQLVESGGGLVQAGGSLRLICAASGSIFGGYAMGWYIQAPGKERELVARITNGGSTYYADSVKGRFTISRDNAKNTVYLQMNSLKPEDTAVYYCNADWYAYPYGYWGQGTQVTVST,low polyreactivity
11,QVQLVESGGGLVQAGGSLRLICAASGSIFGNYVMGWYRQAPGKEMELVAGISTRGGSTYYADSVKGRFTISRDNAKNTVYLQMNCLKPEDTAVYYCAAVPASYRYPMYYWGQGTQVTVSS,low polyreactivity
12,QVQLVESGGGLVQAGGSLRLICAASGSIFGRYAMGWYRQAPGKERELVAAITGSGGTTYYADSVKGRFTISRDNAKNTVYLQMNSLKPEDTAVYYCAADPQVYYSGRPRYDYWGQGTQVTVSS,high polyreactivity
13,QVQLVESGGGLVQAGGSLRLICAASGSIFGRYSMGWYRQAPGKERELVAAINYSGGRTYYADSVKGRVTISRDNAKNTVYLQMNSLKPEDTAVYYCAAAQFPDRNYNYWGQGTQVTVSS,high polyreactivity
14,QVQLVESGGGLVQAGGSLRLICAASGSIFGWNAMGWYRQAPGKERELVASITWSGGRTYYADSVKGRFTISRDNAKNTVYLQMNSLKPEDTAVYYCAADYKPTSRSNKYYYWGQGTQVTVSS,high polyreactivity
15,QVQLVESGGGLVQAGGSLRLICAASGSIFGYNAMVWYRQAPGKERELVAVINASGASTYYADSVKGRFTISRDNAKNTVYLHMNSLKPEDTAVYSCAKDPFPFPGGDYWGQGTQVTVSS,low polyreactivity
16,QVQLVESGGGLVQAGGSLRLICAASGSIFKYYAMGLYRQAPGKERDLVAANRWSGGSTYYADSVKGRFTISRDNAKNTVYLQMNRLKPEDTAVYYCAAEYFNQNTRQGYDYWGQGTQVTVSS,low polyreactivity

row,Sequence,polyreactivity (PSR sort gate)
1,QVQLVESGGGLVQAGGSLRLICAASGSIFRSYSMGWYRQAPGKERELVAGINRSGASTYYADSVKGRFTISRDNAKNTVYLQMNSMKPEDTAVSYCNARAQRGGYNYWGQGTQVTVSS,high polyreactivity
2,QVQLVESGGGLVQAGGSLRLICAASGSIFTHNTMGWYRQAPGKERELVASIDSGASTNYADSVKGRFTISRDNAKNTVYLQMNSLKPEDTAVYYCAADDAKFRYRDDYWGQGTQVTVSS,low polyreactivity
3,QVQLVESGGGLVQAGGSLRLICAASGSIFTPYAMGWYRQAPGKERELVAAISTSGGSTYYADSVKGRFTISRDNAKNTVYLQMNSLKPEDTAVYYCYTVYYSQREIYYWGYDSWGQGTQVTVSS,high polyreactivity
4,QVQLVESGGGLVQAGGSLRLICAASGSIFVLYAMGWYRTAPGKERELVAAINYDGASTYYADSVKGRFTISRDNANNTFYLQMNSLKPKDTAVYYCAADVSYPVIYEYDYGGQGTQVTVSS,low polyreactivity
5,QVQLVESGGGLVQAGGSLRLICAASGSIFYEYAMGWYRQAPGKEREFVASISWSGGITSYADSVKGRFTISRDNAKNTVYLQMNSLKPEDTAVYYCAADFSWYLYDYDYWGQGTQVTVSS,low polyreactivity
6,QVQLVESGGGLVQAGGSLRLICAASGSIFYRNAMGWYRQAPGKERELVAVITDGGTTSYADSVKGRFTISRDNAKNTVYLQMNSLKPEDTAVYYCAADRQPVYPSLGVYWDYGHDYWGQGTQVTVSS,low polyreactivity
7,QVQLVESGGGLVQAGGSLRLICAASGSIIGANAMGWSRQAPGKERELGAAITDNTSTTFYADSVKGRFTISRDIAKNTVYLQMNSLKPEDTAVYYCNADRAVVLSTPLWGEYDYWGQGTQVTVSS,low polyreactivity
8,QVQLVESGGGLVQAGGSLRLICAASGSILYRYAMGWYRQAPGKERELVASISWSDGSTYYADSVKGRFTISRDNAKNTLYLQMNSLKPEDTAVYYCAAKGWGSDSYYAYGYDYWGQGTQVTVSS,low polyreactivity
9,QVQLVESGGGLVQAGGSLRLICAASGSISTPYTMGWYRQAPGKERELVAAISWIGDTTSYADSVKGRFTISRDNAKNTVYLQMNSLKPEDTAVYYCNAEHRGYDYWGQGTQVTVSS,low polyreactivity
10,QVQLVESGGGLVQAGGSLRLICAASGSTFAQNTMGWYRQAPGKERELVATISDGGGSTYYADSVKGRFTISRDNAKNTVYLQMNSLKPEDTSVYYCNTDRFWPSDFWGQGTQVTVSS,low polyreactivity
11,QVQLVESGGGLVQAGGSLRLICAASGSTFARYAMGWYRQAPGKERELVAVIRSGGSTNYADSVKGRFTISRDNAKNTVYLQMNSMKTEDTAGAADQWTIHRWATYGYWGQGTQVTVSS,low polyreactivity
12,QVQLVESGGGLVQAGGSLRLICAASGSTFAYNDMGWYRQAPGTERELVADIRSGGNTNYADSVKGRFTISRDNAKNTVYLQMNSLKPEDTAVYYCATDGYRIDVYHPDYRYDYWGQGTQVTVSS,low polyreactivity
13,QVQLVESGGGLVQAGGSLRLICAASGSTFDQNVMGWYRQAPGKDRELVGTINFSGDSTYYADSVKGRFTISRDNAKNTVYLQMNSLKPEDPAVYYCAVDWGEYIDTSVKRDISYYWGQGTQVTVSS,low polyreactivity
14,QVQLVESGGGLVQAGGSLRLICAASGSTFEAYAMGWYRQAPGKDSELVAAIRSSGSTSYADSVKGRFTISRDNAKNTVYLQMKSLKPEDTALYYGAARVRGYPRYKRDYWGQGTQVTVSS,high polyreactivity
15,QVQLVESGGGLVQAGGSLRLICAASGSTFFYYAMGWYRQAPGKERELVARISGGGSTNYADSVKGRFTISRDNAKNTVYLKMNSLNPEDTAVYYCAADRYHYYRYSYGRYGYWGQCTQVTVSS,high polyreactivity
16,QVQLVESGGGLVQAGGSLRLICAASGSTFGANAMGWYRQAPGKEREFVAAISGSGTTTYYADSVKGRFTISRDNAKNTVYLQMNSLKPEDTPVYYCAKTRKAHWLEYWGQGTQVTVSS,low polyreactivity
